The values below come from publication PMC8597827, “The effect of S427F mutation on RXRα activity depends on its dimeric partner†”.

In this data set the target is RXRα WT (human, UniProt P19793 1-462). Description: EMSA; no ligand; two shifts; competed by 5x and 25x unlabeled DR1; 10 mM Tris HCl pH 8.0, 150 mM KCl, 0.5 mM EDTA, 0.1% Triton X-100, 12.5% glycerol, 0.2 mM DTT, 1 ug poly(dI-dC), 100 pmol probe in 20 uL; 10 min RT then 5 min 37 C; 5% PAGE in 0.5x TBE at 4 C. The following applies: protein: recombinant; chain copies: 2; blunt. For orientation: Mobility shift assays separate free from complexed probe on a gel.
Sequence of RXRα WT (P19793 whole entry): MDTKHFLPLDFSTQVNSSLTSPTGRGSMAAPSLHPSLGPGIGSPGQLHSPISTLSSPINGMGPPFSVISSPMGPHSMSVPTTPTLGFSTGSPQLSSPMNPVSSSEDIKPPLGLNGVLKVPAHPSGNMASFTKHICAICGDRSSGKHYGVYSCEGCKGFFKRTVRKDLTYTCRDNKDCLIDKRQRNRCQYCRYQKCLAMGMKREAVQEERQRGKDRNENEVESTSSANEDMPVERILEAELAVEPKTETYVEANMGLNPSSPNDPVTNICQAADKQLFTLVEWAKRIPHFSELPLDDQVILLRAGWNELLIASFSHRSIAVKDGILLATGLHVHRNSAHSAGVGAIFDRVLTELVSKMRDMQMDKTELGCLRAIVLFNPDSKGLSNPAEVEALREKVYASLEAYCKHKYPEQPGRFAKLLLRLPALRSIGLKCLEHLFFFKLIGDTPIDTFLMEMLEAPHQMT

B1: DR1 (dsDNA)
DNA 1: TCGAGGGTAGGGGTCAGAGGTCACTCGTCGA
DNA 2: TCGACGAGTGACCTCTGACCCCTACCCTCGA
Turning to B1, the binding result is given as “binds”.
